{"source": "patent US20240398920A1", "about": "(CYTOMX THERAPEUTICS, published 2024)", "experiment_in_all_cases": "cell-based or functional assay", "key": {"[1]": {"target": "T1, human herpes virus entry mediator (HVEM) (human, UniProt Q92956 39-283)", "T1 sequence (looked up)": "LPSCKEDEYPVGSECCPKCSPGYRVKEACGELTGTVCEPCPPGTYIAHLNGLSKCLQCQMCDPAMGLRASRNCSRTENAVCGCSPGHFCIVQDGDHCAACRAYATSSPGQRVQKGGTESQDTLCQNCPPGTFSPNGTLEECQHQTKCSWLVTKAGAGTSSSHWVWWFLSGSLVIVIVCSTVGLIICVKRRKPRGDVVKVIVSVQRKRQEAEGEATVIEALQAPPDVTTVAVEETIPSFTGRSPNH"}, "[2]": {"target": "T1, human herpes virus entry mediator (HVEM)", "remark": "listed apart in the source"}, "[3]": {"target": "T2, human lymphotoxin beta receptor (LTbR) (human, UniProt P36941 31-435)", "T2 sequence (P36941 31-435)": "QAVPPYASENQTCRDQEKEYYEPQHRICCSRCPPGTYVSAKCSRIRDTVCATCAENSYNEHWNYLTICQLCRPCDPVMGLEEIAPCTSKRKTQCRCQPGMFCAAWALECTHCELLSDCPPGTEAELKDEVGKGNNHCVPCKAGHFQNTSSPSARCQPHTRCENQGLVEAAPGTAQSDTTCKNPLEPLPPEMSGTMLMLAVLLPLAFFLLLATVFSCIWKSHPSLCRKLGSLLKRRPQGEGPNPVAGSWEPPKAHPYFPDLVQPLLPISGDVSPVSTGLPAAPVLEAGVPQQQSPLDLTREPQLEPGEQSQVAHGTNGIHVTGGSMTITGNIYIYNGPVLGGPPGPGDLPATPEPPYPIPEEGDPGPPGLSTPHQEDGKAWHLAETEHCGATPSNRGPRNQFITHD"}, "[4]": {"target": "T2, human lymphotoxin beta receptor (LTbR)", "remark": "listed apart in the source"}, "[5]": {"target": "T2, human lymphotoxin beta receptor (LTbR)", "remark": "listed apart in the source"}, "[6]": {"target": "T1, human herpes virus entry mediator (HVEM)", "remark": "listed apart in the source"}, "[7]": {"target": "T1, human herpes virus entry mediator (HVEM)", "remark": "listed apart in the source"}, "[8]": {"target": "T1, human herpes virus entry mediator (HVEM)", "remark": "listed apart in the source"}, "[9]": {"target": "T1, human herpes virus entry mediator (HVEM)", "remark": "listed apart in the source"}}, "note": "Like-named read-outs stand apart in the source and are kept apart here.", "data": [{"binder": "LIGHT-10GS-Strep (ProC1188) (ligand) QERRSHEVNPAAHLTGANSSLTGSGGPLLWETQLGLAFLRGLSYHDGALVVTKAGYYYIYSKVQLGGVGCPLGLASTITHGLYKRTPRYPEELELLVSQQSPCGRATSSSRVWWDSSFLGGVVHLEAGEEVVVRVLDERLVRLRDGTRSYFGAFMVSGGGSGGGSGSAWSHPQFEK", "values": [{"measurement": "EC50 [nM]: HVEM Reporter Assay", "setting": "[1]", "value": 1, "unit": "nM"}, {"measurement": "EC50 [nM]: HVEM Reporter Assay", "setting": "[2]", "value": 0.843, "unit": "nM"}, {"measurement": "EC50 [pM]: Lymphotoxin beta receptor Reporter Assay", "setting": "[3]", "value": 5.3, "unit": "pM"}, {"measurement": "EC50 [pM]: Lymphotoxin beta receptor Reporter Assay", "setting": "[4]", "value": 5.3, "unit": "pM"}]}, {"binder": "ProC1192 + uPa (ligand, not shown: small tags and cut ends) GGSQERRSHEVNPAAHLTGANSSLTGSGGPLLWETQLGLAFLRGLSYHDGALVVTKAGYYYIYSKVQLGGVGCPLGLASTITHGLYKRTPRYPEELELLVSQQSPCGRATSSSRVWWDSSFLGGVVHLEAGEEVVVRVLDERLVRLRDGTRSYFGAFMVSGGGSGGGSGSAWSHPQFEK", "values": [{"measurement": "EC50 [pM]: Lymphotoxin beta receptor Reporter Assay", "setting": "[5]", "value": 2, "unit": "pM"}, {"measurement": "EC50 [nM]: HVEM Reporter Assay", "setting": "[6]", "value": 0.999, "unit": "nM"}]}, {"binder": "ProC_mLm16_1490_LIGHT-10GS-Strep (ProC1192) (other) QGQSGSRHPCRHDPHIICYKFGGGSSGGSISSGLLSGRSDNIGGSQERRSHEVNPAAHLTGANSSLTGSGGPLLWETQLGLAFLRGLSYHDGALVVTKAGYYYIYSKVQLGGVGCPLGLASTITHGLYKRTPRYPEELELLVSQQSPCGRATSSSRVWWDSSFLGGVVHLEAGEEVVVRVLDERLVRLRDGTRSYFGAFMVSGGGSGGGSGSAWSHPQFEK", "values": [{"measurement": "EC50 [nM]: HVEM Reporter Assay", "setting": "[1]", "value": 25.6, "unit": "nM"}, {"measurement": "EC50 [pM]: Lymphotoxin beta receptor Reporter Assay", "setting": "[4]", "value": 31.3, "unit": "pM"}, {"measurement": "masking efficiency, HVEM Reporter Assay (EC50 against control ProC1188 or protease-activated ProC1192)", "setting": "[7]", "value": "> 20", "unit": "fold"}]}, {"binder": "ProC_LIGHT-10GS-His (ProC1189) (ligand) QERRSHEVNPAAHLTGANSSLTGSGGPLLWETQLGLAFLRGLSYHDGALVVTKAGYYYIYSKVQLGGVGCPLGLASTITHGLYKRTPRYPEELELLVSQQSPCGRATSSSRVWWDSSFLGGVVHLEAGEEVVVRVLDERLVRLRDGTRSYFGAFMVSGGGSGGGSGHHHHHH", "values": [{"measurement": "EC50 [nM]: HVEM Reporter Assay", "setting": "[8]", "value": 0.58, "unit": "nM"}, {"measurement": "EC50 [nM]: HVEM Reporter Assay", "setting": "[9]", "value": 0.86, "unit": "nM"}]}]}
